# Test results taken from patent US20260167699A1 (Chugai, published 2026).
# B1: GpH7-A5/GpH7-B3 variant T335_14T/GpL16-k0 (antibody, human IgG1, kappa)
# heavy 1: not shown
# heavy 2: not shown
# light: DIVMTQSPLSLPVTPGEPASISCQASESLVHSNRNTYLHWYLQKPGQSPQLLIYKVSNRFSGVPDRFSGSGSGTDFTLKISRVEAEDVGVYYCSQNTHVPPTFGQGTKVEIERTVAAPSVFIFPPSDEQLKSGTASVVCLLNNFYPREAKVQWKVDNALQSGNSQESVTEQDSKDSTYSLSSTLTLSKADYEKHKVYACEVTHQGLSSPVTKSFNRGEC
# B2: GpH7-A5/GpH7-B3 variant A330_01G/GpL16-k0 (antibody, human IgG1, kappa)
# heavy 1: not shown
# heavy 2: not shown
# light: B1 light
# notes: copies: 1 + 1 + 2
# B3: GpH7-A5/GpH7-B3 variant A330_05P/GpL16-k0 (antibody, human IgG1, kappa)
# heavy 1: not shown
# heavy 2: not shown
# light: B1 light
# notes: copies: 1 + 1 + 2
# B4: GpH7-A5/GpH7-B3 variant A330_04F/GpL16-k0 (antibody, human IgG1, kappa)
# heavy 1: not shown
# heavy 2: not shown
# light: B1 light
# notes: copies: 1 + 1 + 2
# B5: GpH7-A5/GpH7-B3 variant A327_05P/GpL16-k0 (antibody, human IgG1, kappa)
# heavy 1: not shown
# heavy 2: not shown
# light: B1 light
# notes: copies: 1 + 1 + 2
# B6: GpH7-A5/GpH7-B3 variant A330_09D/GpL16-k0 (antibody, human IgG1, kappa)
# heavy 1: not shown
# heavy 2: not shown
# light: B1 light
# notes: copies: 1 + 1 + 2
# B7: GpH7-A5/GpH7-B3 variant A330_03V/GpL16-k0 (antibody, human IgG1, kappa)
# heavy 1: not shown
# heavy 2: not shown
# light: B1 light
# notes: copies: 1 + 1 + 2
# B8: GpH7-A5/GpH7-B3 variant A327_19Q/GpL16-k0 (antibody, human IgG1, kappa)
# heavy 1: not shown
# heavy 2: not shown
# light: B1 light
# notes: copies: 1 + 1 + 2
# B9: GpH7-A5/GpH7-B3 variant A330_06M/GpL16-k0 (antibody, human IgG1, kappa)
# heavy 1: not shown
# heavy 2: not shown
# light: B1 light
# notes: copies: 1 + 1 + 2
# B10: GpH7-A5/GpH7-B3 variant A330_11K/GpL16-k0 (antibody, human IgG1, kappa)
# heavy 1: not shown
# heavy 2: not shown
# light: B1 light
# notes: copies: 1 + 1 + 2
# B11: GpH7-A5/GpH7-B3 variant A330_12R/GpL16-k0 (antibody, human IgG1, kappa)
# heavy 1: not shown
# heavy 2: not shown
# light: B1 light
# notes: copies: 1 + 1 + 2
# B12: GpH7-A5/GpH7-B3 variant A327_09D/GpL16-k0 (antibody, human IgG1, kappa)
# heavy 1: not shown
# heavy 2: not shown
# light: B1 light
# notes: copies: 1 + 1 + 2
# B13: GpH7-A5/GpH7-B3 variant A327_13S/GpL16-k0 (antibody, human IgG1, kappa)
# heavy 1: not shown
# heavy 2: not shown
# light: B1 light
# notes: copies: 1 + 1 + 2
# B14: GpH7-A5/GpH7-B3 variant A327_06M/GpL16-k0 (antibody, human IgG1, kappa)
# heavy 1: not shown
# heavy 2: not shown
# light: B1 light
# notes: copies: 1 + 1 + 2
# B15: GpH7-A5/GpH7-B3 variant A327_01G/GpL16-k0 (antibody, human IgG1, kappa)
# heavy 1: not shown
# heavy 2: not shown
# light: B1 light
# notes: copies: 1 + 1 + 2
# B16: GpH7-A5/GpH7-B3 variant A327_18N/GpL16-k0 (antibody, human IgG1, kappa)
# heavy 1: not shown
# heavy 2: not shown
# light: B1 light
# notes: copies: 1 + 1 + 2
# B17: GpH7-A5/GpH7-B3 variant A330_10E/GpL16-k0 (antibody, human IgG1, kappa)
# heavy 1: not shown
# heavy 2: not shown
# light: B1 light
# notes: copies: 1 + 1 + 2
# B18: GpH7-A5/GpH7-B3 variant A330_07I/GpL16-k0 (antibody, human IgG1, kappa)
# heavy 1: not shown
# heavy 2: not shown
# light: B1 light
# notes: copies: 1 + 1 + 2
# B19: GpH7-A5/GpH7-B3 variant A327_20W/GpL16-k0 (antibody, human IgG1, kappa)
# heavy 1: not shown
# heavy 2: not shown
# light: B1 light
# notes: copies: 1 + 1 + 2
# B20: GpH7-A5/GpH7-B3 variant A327_10E/GpL16-k0 (antibody, human IgG1, kappa)
# heavy 1: not shown
# heavy 2: not shown
# light: B1 light
# notes: copies: 1 + 1 + 2
# B21: GpH7-A5/GpH7-B3 variant A330_08L/GpL16-k0 (antibody, human IgG1, kappa)
# heavy 1: not shown
# heavy 2: not shown
# light: B1 light
# notes: copies: 1 + 1 + 2
# Biological target: T1, FcγRIIIa (human, UniProt P08637 17-208)
# T1 construct: extracellular domain; also called 3a; FcγRIIIa extracellular domain
# T1 sequence (P08637 other isoform, or with tags, fused parts or gaps): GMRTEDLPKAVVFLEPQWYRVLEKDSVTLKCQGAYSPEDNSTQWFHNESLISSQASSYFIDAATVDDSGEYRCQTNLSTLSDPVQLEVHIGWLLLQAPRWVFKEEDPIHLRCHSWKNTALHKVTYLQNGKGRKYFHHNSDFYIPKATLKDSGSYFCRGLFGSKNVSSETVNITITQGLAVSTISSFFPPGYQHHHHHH
# Experiment: SPR (Biacore);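 note: antibody variants captured on an SPR sensor chip, with FcγRIIIa passed over as analyte in HBS-EP+ buffer at 25 °C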
row,Binder,He/Con 3a
1,B1,104 % of GpH7-A5/GpH7-B3/GpL16-k0
2,B2,87.3 % of GpH7-A5/GpH7-B3/GpL16-k0
3,B3,152 % of GpH7-A5/GpH7-B3/GpL16-k0
4,B4,144 % of GpH7-A5/GpH7-B3/GpL16-k0
5,B5,61.9 % of GpH7-A5/GpH7-B3/GpL16-k0
6,B6,56.4 % of GpH7-A5/GpH7-B3/GpL16-k0
7,B7,98.8 % of GpH7-A5/GpH7-B3/GpL16-k0
8,B8,54 % of GpH7-A5/GpH7-B3/GpL16-k0
9,B9,139 % of GpH7-A5/GpH7-B3/GpL16-k0
10,B10,91.8 % of GpH7-A5/GpH7-B3/GpL16-k0
11,B11,77.3 % of GpH7-A5/GpH7-B3/GpL16-k0
12,B12,86 % of GpH7-A5/GpH7-B3/GpL16-k0
13,B13,66.7 % of GpH7-A5/GpH7-B3/GpL16-k0
14,B14,54 % of GpH7-A5/GpH7-B3/GpL16-k0
15,B15,74.4 % of GpH7-A5/GpH7-B3/GpL16-k0
16,B16,62.8 % of GpH7-A5/GpH7-B3/GpL16-k0
17,B17,82.8 % of GpH7-A5/GpH7-B3/GpL16-k0
18,B18,101 % of GpH7-A5/GpH7-B3/GpL16-k0
19,B19,52.6 % of GpH7-A5/GpH7-B3/GpL16-k0
20,B20,70.5 % of GpH7-A5/GpH7-B3/GpL16-k0
21,B21,122 % of GpH7-A5/GpH7-B3/GpL16-k0
